Data: IntAct's records for PubMed 19478074

B1: Transforming growth factor-beta-induced protein ig-h3 (Homo sapiens), Q15582 (parent)
chain: MALFVRLLALALALALGPAATLAGPAKSPYQLVLQHSRLRGRQHGPNVCAVQKVIGTNRKYFTNCKQWYQRKICGKSTVISYECCPGYEKVPGEKGCPAALPLSNLYETLGVVGSTTTQLYTDRTEKLRPEMEGPGSFTIFAPSNEAWASLPAEVLDSLVSNVNIELLNALRYHMVGRRVLTDELKHGMTLTSMYQNSNIQIHHYPNGIVTVNCARLLKADHHATNGVVHLIDKVISTITNNIQQIIEIEDTFETLRAAVAASGLNTMLEGNGQYTLLAPTNEAFEKIPSETLNRILGDPEALRDLLNNHILKSAMCAEAIVAGLSVETLEGTTLEVGCSGDMLTINGKAIISNKDILATNGVIHYIDELLIPDSAKTLFELAAESDVSTAIDLFRQAGLGNHLSGSERLTLLAPLNSVFKDGTPPIDAHTRNLLRNHIIKDQLASKYLYHGQTLETLGGKKLRVFVYRNSLCIENSCIAAHDKRGRYGTLFTMDRVLTPPMGTVMDVLKGDNRFSMLVAAIQSAGLTETLNREGVYTVFAPTNEAFRALPPRERSRLLGDAKELANILKYHIGDEILVSGGIGALVRLKSLQGDKLEVSLKNNVVSVNKEPVAEPDIMATNGVVHVITNVLQPPANRPQERGDELADSALEIFKQASAFSRASQRSVRLAPVYQKLLERMKH
partner: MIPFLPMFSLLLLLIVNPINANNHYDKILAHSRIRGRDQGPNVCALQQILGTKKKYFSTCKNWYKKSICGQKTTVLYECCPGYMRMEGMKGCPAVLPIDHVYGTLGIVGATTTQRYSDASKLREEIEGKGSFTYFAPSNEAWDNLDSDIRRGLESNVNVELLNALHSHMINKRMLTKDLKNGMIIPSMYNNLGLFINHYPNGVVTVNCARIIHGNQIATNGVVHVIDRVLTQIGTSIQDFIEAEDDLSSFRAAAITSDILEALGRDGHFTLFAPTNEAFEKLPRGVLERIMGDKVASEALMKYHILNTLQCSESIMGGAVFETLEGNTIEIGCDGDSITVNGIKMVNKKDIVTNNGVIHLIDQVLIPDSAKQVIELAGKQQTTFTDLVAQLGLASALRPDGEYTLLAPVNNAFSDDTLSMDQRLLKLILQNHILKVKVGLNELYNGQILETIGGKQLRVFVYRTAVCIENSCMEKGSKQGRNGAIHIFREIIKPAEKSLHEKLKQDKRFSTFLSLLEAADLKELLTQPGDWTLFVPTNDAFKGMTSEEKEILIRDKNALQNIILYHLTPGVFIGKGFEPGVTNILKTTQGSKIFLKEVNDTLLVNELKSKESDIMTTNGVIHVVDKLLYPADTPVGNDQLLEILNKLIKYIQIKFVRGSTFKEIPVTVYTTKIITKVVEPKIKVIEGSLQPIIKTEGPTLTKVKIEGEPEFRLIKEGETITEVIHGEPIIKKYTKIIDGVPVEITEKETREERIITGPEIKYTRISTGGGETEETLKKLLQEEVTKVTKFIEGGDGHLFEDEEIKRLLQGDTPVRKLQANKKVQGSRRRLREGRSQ

Variants of: B1
Settings: with postn_human POSTN

effect of a mutation on the interaction	Variant
disrupting interaction strength	R124H
